Test results: paper PMC6989145

Tests used:
[1] = target: murine perforin-2 (mPFN2) ectodomain (mouse) (UniProt A1L314); assay: cryo-EM structure; pre-pore oligomers formed in solution: 0.5 mg/ml in 50 mM citric acid buffer pH 5.5, 150 mM NaCl, 37°C overnight; purified by SEC (Superose 6); 0.01% Tween 20 added; C16 symmetry
[2] = target: murine perforin-2 (mPFN2) ectodomain (mouse) (UniProt A1L314); assay: high-speed atomic force microscopy; PFN2 monomers (0.043 mg/ml) incubated 5 min directly on freshly cleaved mica; 20 mM Hepes-NaOH pH 7.5, 200 mM NaCl, 2 mM CaCl2
[3] = target: murine perforin-2 (mPFN2) ectodomain (mouse) (UniProt A1L314); assay: cryo-EM structure; pore: pre-pore sample lowered to pH 3.6 to 4.0 with 0.056% Cymal-6, room temperature, 30 min; C16 symmetry
[4] = target: murine perforin-2 (mPFN2) ectodomain (mouse) (UniProt A1L314); assay: high-speed atomic force microscopy; PFN2 monomers (0.043 mg/ml) incubated 5 min on a mica-supported E. coli lipid bilayer; 20 mM Hepes-NaOH pH 7.5, 200 mM NaCl, 2 mM CaCl2; subunit association and dissociation at incomplete rings, frames of 500 ms

stoichiometry N [1]: 16 subunits
stoichiometry N [2]: 1 to 16 subunits
stoichiometry N [3]: 16
subunit association rate (subunits·s^−1) [4]: 2.4
Substance: murine perforin-2 (mPFN2) ectodomain (from UniProt A1L314 20-652) (domain or fragment)
